Molecular target: CD33 (UniProt P20138 18-364, limits assumed)
Assay: cell-based or functional assay

Chain of CD33 (P20138 18-364 limits assumed): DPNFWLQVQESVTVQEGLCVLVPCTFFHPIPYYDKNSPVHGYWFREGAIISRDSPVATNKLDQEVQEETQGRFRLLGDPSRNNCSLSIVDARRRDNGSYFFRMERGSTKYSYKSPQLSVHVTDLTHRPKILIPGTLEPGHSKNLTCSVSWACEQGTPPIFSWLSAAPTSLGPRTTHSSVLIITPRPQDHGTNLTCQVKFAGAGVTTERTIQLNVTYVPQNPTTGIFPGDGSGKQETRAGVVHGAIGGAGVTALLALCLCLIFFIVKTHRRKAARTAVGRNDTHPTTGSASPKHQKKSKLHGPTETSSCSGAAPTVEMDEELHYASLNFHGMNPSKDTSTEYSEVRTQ

B1: AMV564 (bispecific antibody)
chain: DIQMTQSPSSLSASVGDRVTITCRSSTGAVTTSNYANWVQQKPGKAPKALIGGTNKRAPGVPSRFSGSLIGDKATLTISSLQPEDFATYYCALWYSNLWVFGQGTKVEIKGGSGGSQVQLVQSGAEVKKPGASVKVSCKASGYTFTSYDINWVRQAPGQGLEWMGWMNPNSGNTGFAQKFQGRVTMTRDTSTSTVYMELSSLRSEDTAVYYCARDRANTDYSLGMDVWGQGTLVTVSSGGSGQSVLTQPPSASGTPGQRVTISCSGSRSNIGSNTVNWYQQLPGTAPKLLIYGNNQRPSGVPDRFSGSKSGTSASLAISGLQSEDEADYYCATWDDSLIGWVFGGGTKLTVLGGSGGSEVQLVESGGGLVQPGGSLRLSCAASGFTFSTYAMNWVRQAPGKGLEWVGRIRSKYNNYATYYADSVKDRFTISRDDSKNSLYLQMNSLKTEDTAVYYCARHGNFGNSYVSYFAYWGQGTLVTVSS
**Q.** For B1, which “proliferation of CD4+ and CD8+ T cells” value is on record?
**A.** > 2 fold
